This note sets out measurements from IntAct's records for PubMed 20819940.

B1: High mobility group protein B1 (Rattus norvegicus (Rat)), P63159 (parent)
chain: MGKGDPKKPRGKMSSYAFFVQTCREEHKKKHPDASVNFSEFSKKCSERWKTMSAKEKGKFEDMAKADKARYEREMKTYIPPKGETKKKFKDPNAPKRPPSAFFLFCSEYRPKIKGEHPGLSIGDVAKKLGEMWNNTAADDKQPYEKKAAKLKEKYEKDIAAYRAKGKPDAAKKGVVKAEKSKKKKEEEDDEEDEEDEEEEEEEEDEDEEEDDDDE

In the assay the parent is B1. The conditions noted are these: with becn1_mouse Becn1, O88597.
becn1_mouse Becn1, O88597, sequence (O88597 whole entry): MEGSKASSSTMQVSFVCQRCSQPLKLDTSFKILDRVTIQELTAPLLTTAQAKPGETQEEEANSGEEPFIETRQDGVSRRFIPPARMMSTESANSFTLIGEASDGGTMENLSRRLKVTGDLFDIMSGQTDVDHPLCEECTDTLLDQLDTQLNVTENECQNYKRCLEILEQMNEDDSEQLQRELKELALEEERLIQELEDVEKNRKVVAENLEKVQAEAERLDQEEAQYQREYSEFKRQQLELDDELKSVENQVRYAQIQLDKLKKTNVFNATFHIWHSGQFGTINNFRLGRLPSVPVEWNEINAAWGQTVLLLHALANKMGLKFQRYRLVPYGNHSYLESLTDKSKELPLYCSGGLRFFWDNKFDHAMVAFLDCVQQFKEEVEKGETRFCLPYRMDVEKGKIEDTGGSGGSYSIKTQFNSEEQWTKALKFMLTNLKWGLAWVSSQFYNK
For the variant C23S, the “effect of a mutation on the interaction” value is on record as “disrupting interaction”.
The value for C45S was “disrupting interaction”.
